We go through one protein from PMC5677083, “Characterization of ApoJ-reconstituted high-density lipoprotein (rHDL) nanodisc for the potential treatment of cerebral β-amyloidosis” (Scientific Reports, 2017).

This data set concerns the molecule itself. The experiment in a line: SEC; purified rApoJ on a size exclusion column; wide peak at 12-16 ml and a homogeneous peak at 16-18 ml (maximum 16.5 ml) of the elution volume; column and buffer are in the Supplementary Information.

B1: recombinant human ApoJ (rApoJ), free (non-lipidated) (natural protein)
chain 1: DQTVSDNELQEMSNQGSKYVNKEIQNAVNGVKQIKTLIEKTNEERKTLLSNLEEAKKKKEDALNETRESETKLKELPGVCNETMMALWEECKPCLKQTCMKFYARVCRSGSGLVGRQLEEFLNQSSPFYFWMNGDRIDSLLENDRQQTHMLDVMQDHFSRASSIIDELFQDRFFTREPQDTYHYLPFSLPHRRPHFFFPKSRIVR
chain 2: SLMPFSPYEPLNFHAMFQPFLEMIHEAQQAMDIHFHSPAFQHPPTEFIREGDDDRTVCREIRHNSTGCLRMKDQCDKCREILSVDCSTNNPSQAKLRRELDESLQVAERLTRKYNELLKSYQWKMLNTSSLLEQLNEQFNWVSRLANLTQGEDQYYLRVTTVASHTSDSDVPSGVTEVVVKLFDSDPITVTVPVEVSRKNPKFMETVAEKALQEYRKKHREE
notes: apolipoprotein J (clusterin), human, beta chain: cut product of the precursor, disulfide-bonded to the alpha chain; apolipoprotein J (clusterin), human, alpha chain: cut product of the precursor, disulfide-bonded to the beta chain; Heterodimer of alpha and beta chains (about 40 kDa each, about 77 kDa non-reduced); They are written on the alpha chain on the surmise that they sit at the C-terminus …
As for B1, the binding result is recorded as “binds”.
